6 substances from paper PMC6657065 can be followed below.

What all share (assay): SEC; Superdex-200 on FPLC after TEV removal of the MBP tag; 20 mM NaH2PO4 pH 7.0, 0.3 M NaCl, 1 mM TCEP, 10% glycerol, 0.005% FC-16; 4 °C; mass by regression against gel filtration standards (Bio-Rad); self-association, oligomer size
Experiment [1] concerns the target Bambusa oldhamii cellulose synthase BoCesA4 (Bambusa oldhamii).
For experiment [2], the target named is Bambusa oldhamii cellulose synthase BoCesA7 (Bambusa oldhamii).
Experiment [3] concerns the target Bambusa oldhamii cellulose synthase BoCesA3 (Bambusa oldhamii).
The target in experiment [4] is Bambusa oldhamii cellulose synthase BoCesA5 (Bambusa oldhamii).
Experiment [5] concerns the target Bambusa oldhamii cellulose synthase BoCesA1 (Bambusa oldhamii).
For experiment [6], the target named is Bambusa oldhamii cellulose synthase BoCesA2 (Bambusa oldhamii).

As a reminder, the stoichiometry N is a count of units in the complex or per binding partner. Regarding “Bambusa oldhamii cellulose synthase BoCesA4 (enzyme)”, in experiment [1], the stoichiometry N worked out at 6.

In turn, “Bambusa oldhamii cellulose synthase BoCesA7 (enzyme)” came in with a stoichiometry N in experiment [2] of 6.

In the case of “Bambusa oldhamii cellulose synthase BoCesA3 (enzyme)”, the stoichiometry N in experiment [3] amounted to 6.

In experiment [4], “Bambusa oldhamii cellulose synthase BoCesA5 (enzyme)” displayed a stoichiometry N of 6.

Regarding “Bambusa oldhamii cellulose synthase BoCesA1 (enzyme)”, the stoichiometry N in experiment [5] turned out to be 6.

Turning to “Bambusa oldhamii cellulose synthase BoCesA2 (enzyme)”, the stoichiometry N in experiment [6] stood at 6.
